Test results as given in the supplement of paper PMC10899765.

Legend:
Settings in all cases: 20 nM; 72 h
[1] = system: MCF10A; assay: 5+ nucleoli phenotype percent effect (relative to siNT 0% and siKIF11 100%); higher = more cells with five or more nucleoli
Experimental: (§1)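 After 72 h, cells were fixed and stained with Hoechst and anti-fibrillarin, and nucleoli per nucleus were counted with CellProfiler. Values are plate-adjusted percent effect for the one-nucleolus and 5+ nucleoli phenotypes, normalised to siNT (0%) and to the positive controls siNOL11 or siKIF11 (100%), as the mean of biological triplicates. Percent viability is the nuclei count relative to siNT.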

[2] = system: MCF10A; assay: one-nucleolus phenotype percent effect (relative to siNT 0% and siNOL11 100%); higher = more cells with one nucleolus (ribosome biogenesis inhibition)
Experimental: as §1

[3] = system: MCF10A; assay: percent viability (nuclei count relative to siNT); higher = more viable cells
Experimental: as §1

Row | Sequence | 5+ nucleoli phenotype percent effect [1] | one-nucleolus phenotype percent effect [2] | percent viability [3]
1 | AGCUCUGCUGCUCACUGGCAGU [hsa-miR-3194-3p] | 6.75% | 1.77% | 22.1%
2 | UGAGGGACAGAUGCCAGAAGCA [hsa-miR-3126-5p] | -33.3% | 40% | 16.2%
3 | CAGAGGGAAUACAGAGGGCAAU [hsa-miR-6873-5p] | 7.98% | 20% | 36.7%
4 | UGUUCAUUGGAACCCUGCGCAG [hsa-miR-6853-3p] | 29% | -28.7% | 79.8%
5 | GAUGAUGAUGGCAGCAAAUUCUGAAA [hsa-miR-1272] | 4.28% | 8.72% | 76.8%
6 | UCCCUGCCCCCAUACUCCCAG [hsa-miR-6752-3p] | -28.9% | 14.5% | 28.7%
7 | CCUGCAGCGACUUGAUGGCUUCC [hsa-miR-1184] | -8.51% | 4.01% | 70.1%
8 | AGGGGUGCUAUCUGUGAUUGA [hsa-miR-342-5p] | -43.4% | 15.1% | 10.5%
9 | AGAAGAUUGCAGAGUAAGUUCC [hsa-miR-4699-5p] | -32.9% | 31.8% | 48.2%
10 | AAGUGCCUCCUUUUAGAGUGUU [hsa-miR-519e-3p] | -1.33% | -10.9% | 40.9%
11 | GACUCACUCACAGGAUUGUGCA [hsa-miR-3680-5p] | 39.7% | -12% | 58.9%
12 | UAGGUUAUCCGUGUUGCCUUCG [hsa-miR-154-5p] | -28.7% | 34.9% | 32.9%
13 | UGUGCAGCAGGCCAACCGAGA [hsa-miR-3944-5p] | 4.63% | -7.88% | 69%
14 | AACUCACGAAGUAUACCGAAGU [hsa-miR-4798-3p] | 11.4% | -1.81% | 48.2%
15 | UAGACCAUCUUUCUAGAGUAU [hsa-miR-6502-3p] | -0.273% | -0.125% | 102%
16 | GGGGUUCCUGGGGAUGGGAUUU [hsa-miR-23a-5p] | 40.3% | -14% | 103%
17 | AGGCCCUGUCCUCUGCCCCAG [hsa-miR-6775-3p] | 11.1% | 12.8% | 41.3%
18 | UAAUUGCUUCCAUGUUU [hsa-miR-302f] | -31.2% | 22.1% | 65.5%
19 | CUCGGGCGGAGGUGGUUGAGUG [hsa-miR-4750-5p] | -7.37% | 14.8% | 40.2%
20 | UCUCUGGUCUUUCCUUGACAG [hsa-miR-6764-3p] | 17.2% | 0.623% | 27.5%
21 | GGGCGCCUGUGAUCCCAAC [hsa-miR-566] | 39.3% | -9.02% | 81.2%
22 | AAAAGUAAUUGUGGUUUUGGCC [hsa-miR-548b-5p] | 36.5% | -24.3% | 131%
23 | GCGGAAGGCGGAGCGGCGGA [hsa-miR-6125] | 25.5% | -24.1% | 155%
24 | AAAAGCUGGGUUGAGAGGGU [hsa-miR-320c] | -0.437% | 1.49% | 64.7%

Row | Sequence | 5+ nucleoli phenotype percent effect [1] | one-nucleolus phenotype percent effect [2] | percent viability [3]
25 | AAUGUGGACUGGUGUGACCAAA [hsa-miR-4491] | 20.6% | -0.704% | 45.4%
26 | CUUAGACUGCCAGACUCCCUGA [hsa-miR-7702] | 59.3% | -29.9% | 163%
27 | UAAAGUAAAUAUGCACCAAAA [hsa-miR-559] | 24% | -21.4% | 153%
28 | GGCUCCUUGGUCUAGGGGUA [hsa-miR-4448] | 20.5% | -9.36% | 45.2%
29 | ACCAAGUCUGCGUCAUCCUCUC [hsa-miR-3691-3p] | 0.0313% | -5.26% | 63.2%
30 | UUGAGAAUGAUGAAUCAUUAGG [hsa-miR-580] | 25.6% | -18.3% | 91.4%
31 | CCAGGCUCUGCAGUGGGA [hsa-miR-3155b] | 29.5% | -8.6% | 65.5%
32 | UUAGGGAGUAGAAGGGUGGGGAG [hsa-miR-3162-5p] | -5.7% | 8.12% | 52.8%
33 | UGUCUCUCGCCCUUGGCCUUAG [hsa-miR-6895-3p] | -32.5% | 34.7% | 19.4%
34 | GGCUUGCAUGGGGGACUGG [hsa-miR-4327] | 7.45% | 12.4% | 40.2%
35 | GGUGGAUAUUCCUUCUAUGUU [hsa-miR-376c-5p] | -0.73% | 21.9% | 20.7%
36 | AACUGUUUGCAGAGGAAACUGA [hsa-miR-452-5p] | 28.4% | -22.3% | 103%
37 | AUCGCUUUACCAUUCAUGUU [hsa-miR-4790-5p] | -9.48% | 16.1% | 34.2%
38 | UCCUUUGCCUAUUCUAUUUAAG [hsa-miR-3121-5p] | 17% | -3.46% | 56.5%
39 | UUGUGGGUGGGCAGAAGUCUGU [hsa-miR-6759-5p] | -37.5% | 49.5% | 21.7%
40 | UGUAAACAUCCUACACUCAGCU [hsa-miR-30b-5p] | 34.3% | -9.57% | 93%
41 | UAAAGAGCCCUGUGGAGACA [hsa-miR-1276] | -20.8% | 24.1% | 41.4%
42 | UGGGUAGAGAAGGAGCUCAGAGGA [hsa-miR-3132] | 62.9% | 1.88% | 21.4%
43 | UACCACAGGGUAGAACCACGG [hsa-miR-140-3p] | 47.1% | -23.5% | 118%
44 | CCUGAGAAAAGGGCCAA [hsa-miR-4251] | -4.33% | 15.3% | 31.3%
45 | CUCUAGAGGGAAGCGCUUUCUG [hsa-miR-519b-5p] | -5.59% | 5.75% | 36.9%
46 | UGAUGAUACAGGUGGAGGUAG [hsa-miR-3682-3p] | -7.38% | 19.3% | 31.5%
47 | CACCCGGCUGUGUGCACAUGUGC [hsa-miR-941] | -23.6% | -3.88% | 56.3%
48 | CGUGGAUAUUCCUUCUAUGUUU [hsa-miR-376b-5p] | -14% | 9.58% | 22%
